One block for each substance: values may come before it.
What was measured:
[1] = target: MR1 C262S loaded with acetyl-6-formylpterin (Ac-6-FP) (UniProt Q95460); assay: SPR, TAPBPR-biotin on streptavidin chip, Ac-6-FP loaded MR1 C262S as analyte
1G4 TCR [2] = assay: flow cytometry; PE tetramer (1 µg/mL) on human T cells transduced with the 1G4 TCR; tetramer from TAPBPR-catalysed peptide exchange; no percent sign printed
[3] = target: HLA-A*24:02/hb2m/VYGJVRACL (peptide-loaded) (human); assay: SPR; HLA-A*24:02/[..], 0.1 to 10 µM, over chicken TAPBPR-biotin on a streptavidin chip; kinetic fit
[4] = target: HLA-B*08:01/hb2m/FLRGRAJGL (peptide-loaded) (human)
[5] = target: HLA-F*01:01/hb2m/LILRWE(bF)D (human); assay: SPR; HLA-F*01:01/hb2m/LILRWE(bF)D, 0.0625 to 2 µM, over chTAPBPR-biotin on a streptavidin chip; kinetic fit
[6] = target: peptide-deficient (empty) HLA-B*08:01/hb2m (human) (UniProt P01889); assay: SPR, TAPBPR-biotin on streptavidin chip, UV-irradiated (empty) HLA as analyte
[7] = target: peptide-deficient (empty) HLA-A*30:01/hb2m (human); assay: as above
[8] = target: peptide-deficient (empty) HLA-A*02:01/hb2m (human); assay: as above
[9] = target: peptide-deficient (empty) HLA-A*24:02/hb2m (human); assay: as above
[10] = target: peptide-deficient (empty) HLA-A*01:01/hb2m (human); assay: as above
[11] = target: peptide-deficient (empty) HLA-A*68:02/hb2m (human); assay: as above
[12] = target: peptide-deficient (empty) HLA-A*11:01/hb2m (human); assay: as above
[13] = target: peptide-deficient (empty) HLA-G*01:01/hb2m (human); assay: as above
[14] = target: peptide-deficient (empty) HLA-B*37:01/hb2m (human); assay: as above
[15] = target: peptide-deficient (empty) HLA-A*29:02/hb2m (human); assay: as above
[16] = target: HLA-A*01:01/hb2m/STAPGJLEY (peptide-loaded) (human); assay: cell-based or functional assay
[17] = target: HLA-A*24:02/hb2m/VYGJVRACL (peptide-loaded) (human); assay: SPR, TAPBPR-biotin on streptavidin chip, peptide-loaded HLA as analyte
[18] = target: HLA-A*29:02/hb2m/VFAQVKQJY (peptide-loaded) (human); assay: as above
1G4 TCR [19] = assay: flow cytometry; PE tetramer (1 µg/mL) on human T cells transduced with the 1G4 TCR; negative control; no percent sign printed
[20] = target: MR1 C262S loaded with acetyl-6-formylpterin (Ac-6-FP) (UniProt Q95460); assay: SPR; MR1 C262S/Ac-6-FP, 10 to 100 µM, over hTAPBPR^KRQ-biotin on a streptavidin chip; steady-state fit in the inset
1G4 TCR [21] = assay: flow cytometry; PE tetramer (1 µg/mL) on human T cells transduced with the 1G4 TCR; tetramer from conventional refolding; no percent sign printed
[22] = target: MR1 C262S loaded with acetyl-6-formylpterin (Ac-6-FP) (UniProt Q95460); assay: SPR; MR1 C262S/Ac-6-FP, 10 to 100 µM, over hTAPBPR^RQ-biotin on a streptavidin chip; steady-state fit in the inset

Substance: human TAPBPR luminal domain (hTAPBPR) (from UniProt Q9BX59 22-405)
Kd [1]: 98.7 µM

Substance: chicken TAPBPR luminal domain (chTAPBPR)
Kd [3]: 0.37 µM | -TΔS [4]: -48.1 kJ/mol | ΔG [4]: -18.8 kJ/mol | ΔH [4]: 29.3 kJ/mol | Kd [5]: 0.76 µM | Kd [1]: 19.2 µM | Kd [6]: 1.89 µM | Kd [7]: 1.28 µM | Kd [8]: 2.96 µM | Kd [9]: 1.68 µM | Kd [10]: 1.46 µM | Kd [11]: 0.43 µM | Kd [12]: 0.91 µM | Kd [13]: 11.2 µM | Kd [14]: 2.19 µM | Kd [15]: 0.29 µM | kapp of fluorescent peptide binding at 5 uM chaperone (FP) [16]: 0.00017 s⁻¹ | Kd [17]: 17.4 µM | Kd [18]: 0.17 µM

Substance: Refolded Rubella (from UniProt A*02:01) (peptide-MHC)
tet+ (share of events in the tetramer-positive live gate) (1G4 TCR [19]): 0.75

Substance: hTAPBPR^RQ (K211R, R270Q) (from UniProt Q9BX59 22-405)
Kd [22]: 49.5 µM

Other lines, results leading:

tet+ (share of events in the tetramer-positive live gate) (1G4 TCR [2]): 72.1
Substance: Exchanged S1A (NY-ESO-1) (from UniProt A*02:01) (peptide-MHC)

Kd [20]: 62 µM
Substance: hTAPBPR^KRQ (R105K, K211R, R270Q) (from UniProt Q9BX59 22-405)

tet+ (share of events in the tetramer-positive live gate) (1G4 TCR [2]): 71.4 | tet+ (share of events in the tetramer-positive live gate) (1G4 TCR [21]): 78.7
Substance: NY-ESO-1 (HLA-A*02:01/… tetramer) (peptide-MHC)

tet+ (share of events in the tetramer-positive live gate) (1G4 TCR [2]): 38.7
Substance: Exchanged A2/M4A (NY-ESO-1) (from UniProt A*02:01) (peptide-MHC)

tet+ (share of events in the tetramer-positive live gate) (1G4 TCR [2]): 2.18
Substance: Exchanged A2/W5A (NY-ESO-1) (from UniProt A*02:01) (peptide-MHC)

From patent US20250179143A1, “SYSTEMS AND METHODS FOR CHAPERONE-MEDIATED LIGAND EXCHANGE ON MHC-I AND MHC-RELATED MOLECULES USING CHICKEN TAPBPR” (priority 2022, published 2025)
